Results as given in paper PMC10296741, “One Single Tube Reaction of Aptasensor-Based Magnetic Sensing System for Selective Fluorescent Detection of VEGF in Plasma”.

Biological target: VEGF-165 (UniProt P15692-4 27-191)
Test: magnetic bead capture with fluorescent complementary probe (fluorescence rebound); 50 uM KCl, 1 mM Mg2+, pH 7.0; linear 0.2-2.0 ng/mL VEGF in plasma, LOD 0.0445 ng/mL; 1X TBSE: 10 mM Tris, 0.05 mM EDTA, 100 mM NaCl, 1 mM MgCl2, 50 uM KCl, pH 7.0; 0.1 uM aptamer (95 C 3 min, cooled), 25 C, 45 min
Details: protein: commercial; chain copies: 2; label: 5'-biotin; G-quadruplex

Sequence of VEGF-165 (P15692 other isoform, or with tags, fused parts or gaps): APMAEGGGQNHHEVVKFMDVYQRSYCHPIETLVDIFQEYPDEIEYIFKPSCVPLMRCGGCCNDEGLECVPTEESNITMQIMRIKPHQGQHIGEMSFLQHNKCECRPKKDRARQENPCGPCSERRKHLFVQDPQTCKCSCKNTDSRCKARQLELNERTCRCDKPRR

B1: VEGF aptamer (APT) (structured_DNA)
DNA: TGTGGGGGTGGACGGGCCGGGTAGA
binding result: binds
